T1: Recombinant human Smad4 (NM 005359) with C-terminal MYC/DDK tag (human, UniProt Q13485 1-552)
T1 construct: Bought from OriGene; also called DDK-tagged recombinant Smad4; DDK-tagged Smad4; not shown: C-terminal MYC/DDK tag
T1 sequence (looked up): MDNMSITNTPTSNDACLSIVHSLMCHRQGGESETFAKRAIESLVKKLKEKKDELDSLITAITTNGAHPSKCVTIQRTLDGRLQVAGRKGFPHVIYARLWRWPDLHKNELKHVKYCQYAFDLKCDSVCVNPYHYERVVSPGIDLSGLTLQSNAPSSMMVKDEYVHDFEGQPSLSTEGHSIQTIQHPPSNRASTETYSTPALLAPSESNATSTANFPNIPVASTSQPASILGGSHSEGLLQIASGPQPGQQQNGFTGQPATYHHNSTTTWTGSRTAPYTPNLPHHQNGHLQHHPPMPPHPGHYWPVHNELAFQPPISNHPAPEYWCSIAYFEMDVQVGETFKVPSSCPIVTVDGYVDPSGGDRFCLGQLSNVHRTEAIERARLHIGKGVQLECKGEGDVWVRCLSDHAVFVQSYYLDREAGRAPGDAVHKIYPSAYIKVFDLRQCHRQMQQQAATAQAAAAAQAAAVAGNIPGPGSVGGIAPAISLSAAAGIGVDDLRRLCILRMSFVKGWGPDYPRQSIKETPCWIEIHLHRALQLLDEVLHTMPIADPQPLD


Assays:
[1] = molecular target: T2, Recombinant human Smad2 (NM 005901) with C-terminal MYC/DDK tag (human, UniProt Q15796 1-467); assay: peptide-protein interaction assay: M10 and DDK-tagged Smad2 (1 µg each), capture with C12 antibody and protein G sepharose, anti-DDK immunoblot
T2 construct: Bought from OriGene; also called DDK-tagged recombinant Smad2; DDK-tagged Smad2; not shown: C-terminal MYC/DDK tag

[2] = molecular target: T1, Recombinant human Smad4 (NM 005359) …; assay: peptide-protein interaction assay: capture with C12 antibody and protein G sepharose, anti-DDK immunoblot
Description: C-12 antibody (1 μg) was added, and incubation was continued for another 30 minutes followed by adding 50 μl of protein G-sepharose slurry for an additional 20 minutes. The resin was washed three times with buffer A; the retained proteins were solubilized in Laemmli sample buffer and subjected to immunoblotting with anti-DDK monoclonal antibody.
As a positive control for anti-DDK antibody, the gel was loaded with 5 μl-aliquots of a buffer containing DDK-tagged recombinant Smad2 or Smad4 proteins.

[3] = molecular target: MET receptor tyrosine kinase, wild type, full length, P08581
MET receptor tyrosine kinase, wild type, full length, P08581, sequence (P08581 whole entry, looked up): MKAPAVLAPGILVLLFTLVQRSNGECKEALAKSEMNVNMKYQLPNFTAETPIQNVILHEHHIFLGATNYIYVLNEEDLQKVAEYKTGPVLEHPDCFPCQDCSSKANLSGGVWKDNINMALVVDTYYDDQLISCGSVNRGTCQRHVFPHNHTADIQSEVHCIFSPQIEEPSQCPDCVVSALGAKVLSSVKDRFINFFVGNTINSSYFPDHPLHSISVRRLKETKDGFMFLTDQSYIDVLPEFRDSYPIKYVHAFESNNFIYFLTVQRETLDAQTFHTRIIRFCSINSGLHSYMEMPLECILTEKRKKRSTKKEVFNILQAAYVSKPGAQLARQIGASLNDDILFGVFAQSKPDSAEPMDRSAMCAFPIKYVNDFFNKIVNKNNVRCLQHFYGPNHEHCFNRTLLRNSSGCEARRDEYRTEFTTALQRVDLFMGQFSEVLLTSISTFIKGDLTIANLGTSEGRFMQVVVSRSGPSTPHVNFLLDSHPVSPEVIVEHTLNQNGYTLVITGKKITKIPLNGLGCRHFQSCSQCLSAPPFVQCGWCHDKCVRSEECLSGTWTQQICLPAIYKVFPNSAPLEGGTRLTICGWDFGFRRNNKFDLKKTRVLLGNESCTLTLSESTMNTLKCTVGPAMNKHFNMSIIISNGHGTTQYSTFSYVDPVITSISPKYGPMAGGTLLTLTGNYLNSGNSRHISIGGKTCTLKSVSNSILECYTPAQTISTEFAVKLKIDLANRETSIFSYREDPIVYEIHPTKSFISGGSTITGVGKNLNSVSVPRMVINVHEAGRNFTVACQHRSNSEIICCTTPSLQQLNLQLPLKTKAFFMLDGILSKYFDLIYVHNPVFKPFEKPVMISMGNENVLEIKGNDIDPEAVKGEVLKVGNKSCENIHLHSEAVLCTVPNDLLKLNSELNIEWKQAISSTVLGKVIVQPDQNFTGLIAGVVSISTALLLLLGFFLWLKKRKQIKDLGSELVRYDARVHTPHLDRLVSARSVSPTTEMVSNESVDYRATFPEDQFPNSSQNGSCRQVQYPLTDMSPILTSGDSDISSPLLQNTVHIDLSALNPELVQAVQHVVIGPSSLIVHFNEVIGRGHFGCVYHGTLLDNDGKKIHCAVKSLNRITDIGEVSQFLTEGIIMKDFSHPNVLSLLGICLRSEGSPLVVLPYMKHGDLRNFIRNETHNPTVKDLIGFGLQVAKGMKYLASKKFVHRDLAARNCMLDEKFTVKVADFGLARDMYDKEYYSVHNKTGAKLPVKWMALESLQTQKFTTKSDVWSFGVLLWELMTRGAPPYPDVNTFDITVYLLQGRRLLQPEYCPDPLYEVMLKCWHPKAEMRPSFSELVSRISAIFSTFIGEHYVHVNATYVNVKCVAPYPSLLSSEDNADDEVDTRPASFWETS

T2 sequence (Q15796 whole entry): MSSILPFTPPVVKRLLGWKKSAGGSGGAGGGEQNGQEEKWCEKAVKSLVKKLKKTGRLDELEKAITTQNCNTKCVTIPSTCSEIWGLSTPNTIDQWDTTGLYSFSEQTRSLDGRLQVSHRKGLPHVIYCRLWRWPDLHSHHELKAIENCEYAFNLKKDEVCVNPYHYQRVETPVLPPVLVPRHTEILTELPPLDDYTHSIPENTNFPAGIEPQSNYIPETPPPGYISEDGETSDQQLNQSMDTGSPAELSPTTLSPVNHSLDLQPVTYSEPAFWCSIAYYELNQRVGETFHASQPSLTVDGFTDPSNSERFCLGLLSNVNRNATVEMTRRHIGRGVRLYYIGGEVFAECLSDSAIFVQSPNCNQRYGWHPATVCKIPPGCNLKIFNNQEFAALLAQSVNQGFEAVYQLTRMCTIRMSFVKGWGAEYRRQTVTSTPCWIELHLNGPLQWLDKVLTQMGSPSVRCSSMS

| binding result [1] | binding result [2] | Binder | cleavage of the MET C-terminus (loss of C12 signal in Western blot) [3] |
| --- | --- | --- | --- |
| binds | no binding (tested: 1 µg each) | TRPASFWETS (Synthetic peptide from GenScript; A 5,6-TAMRA conjugate (at the N-terminus) was used only for localisation; also called 2 kD C-terminal fragment (M10) of the MET receptor; last 10 amino acids of MET) [M10 peptide (TRPASFWETS), synthetic] |  |
|  |  | caspase-3 (activated, endogenous in lung fibroblasts and alveolar epithelial cells) (protein) SGISLDNSYKMDYPEMGLCIIINNKNFHKSTGMTSRSGTDVDAANLRETFRNLKYEVRNKNDLTREEIVELMRDVSKEDHSKRSSFVCVLLSHGEEGIIFGTNGPVDLKKITNFFRGDRCRSLTGKPKLFIIQACRGTELDCGIETDSGVDDDMACHKIPVEADFLYAYSTAPGYYSWRNSKDGSWFIQSLCAMLKQYADKLEFMHILTRVNRKVATEFESFSFDATFHAKKQIPCIVSMLTKELYFYH | Cisplatin-induced caspase-3 cleavage was associated with a loss of detectable MET protein in Western blots with the C12 antibody |

Source: patent publication US20180215802A1 (MUSC FOUNDATION FOR RESEARCH DEVELOPMENT, published 2018)
